The target of experiment [1] is T1, Y2-GPCR (Homo sapiens, UniProt P49146).
T1 sequence (P49146 1-381): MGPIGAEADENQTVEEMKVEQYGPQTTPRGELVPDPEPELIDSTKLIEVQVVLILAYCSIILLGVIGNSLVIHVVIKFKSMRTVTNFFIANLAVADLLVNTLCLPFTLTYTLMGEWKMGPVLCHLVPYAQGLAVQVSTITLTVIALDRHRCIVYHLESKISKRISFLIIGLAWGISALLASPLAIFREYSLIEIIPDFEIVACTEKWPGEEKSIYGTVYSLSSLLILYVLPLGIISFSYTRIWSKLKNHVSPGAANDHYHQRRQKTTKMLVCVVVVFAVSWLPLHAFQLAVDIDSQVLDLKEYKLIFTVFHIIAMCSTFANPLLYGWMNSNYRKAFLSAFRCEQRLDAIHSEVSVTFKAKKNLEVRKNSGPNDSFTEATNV
The experiment is described as follows: competitive binding assay against PYY22-36 on Y2-GPCR. How it is done:
The peptides derived from the proteins AtRGP2, OsRGP1 and OsBiP were synthesized in 5 mg quantities at and purified to a purity of above about 90%. The peptides were tested in a competitive binding assay against PYY^22-36 for binding to the GPCR receptor.
In-vitro receptor-based screening of receptor subtypes Y1, Y2, and Y3 was performed according to protocols known in the art. (Munoz et al., Mol. Cell. Endocrinol. 107, 77 (1995), Fuhlendorf et al., PNAS 87, 182 (1990)) Screening of OsBiP, ZmRGP1 and AtRGP1 was conducted on Y2-GPCR as described above using known methods and activity was measured as the percentage of inhibition of binding of the endogenous ligand PYY^22-36 sequence. The PYY^22-36 sequence was used as a positive control. Of the peptides tested, the one derived from AtRGP1 protein was able to inhibit binding of PYY^22-36 by 20-40% when 10 μM concentration of both the PYY^22-36 and OsBiP peptide were used in the binding assay. […] In vivo tissue-based screening on cultures of rat colon cells can be carried out according to known protocols, such as described in Dumont et al., Eur. J. Pharmacol. 238, 37 (1993).

Experiment [2] addresses T2, Y2 GPCR receptor.
T2 sequence (P49146 whole entry, species assumed, looked up): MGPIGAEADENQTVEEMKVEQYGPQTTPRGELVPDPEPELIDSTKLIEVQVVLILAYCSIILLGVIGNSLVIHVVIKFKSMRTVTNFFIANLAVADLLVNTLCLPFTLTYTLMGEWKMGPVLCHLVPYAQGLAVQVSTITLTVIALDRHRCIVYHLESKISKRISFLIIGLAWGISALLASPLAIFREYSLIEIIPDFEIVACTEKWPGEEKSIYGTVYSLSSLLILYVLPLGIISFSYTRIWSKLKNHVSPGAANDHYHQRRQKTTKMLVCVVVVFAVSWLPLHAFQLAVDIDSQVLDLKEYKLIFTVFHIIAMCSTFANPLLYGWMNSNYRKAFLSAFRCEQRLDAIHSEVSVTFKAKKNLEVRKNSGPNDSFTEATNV
Description: competitive receptor binding assay on Y2-GPCR against PYY22-36, 10 µM of both peptides.

Experiment [3] addresses T3, CCK-B GPCR receptor (human) (UniProt P32239).
T3 sequence (looked up): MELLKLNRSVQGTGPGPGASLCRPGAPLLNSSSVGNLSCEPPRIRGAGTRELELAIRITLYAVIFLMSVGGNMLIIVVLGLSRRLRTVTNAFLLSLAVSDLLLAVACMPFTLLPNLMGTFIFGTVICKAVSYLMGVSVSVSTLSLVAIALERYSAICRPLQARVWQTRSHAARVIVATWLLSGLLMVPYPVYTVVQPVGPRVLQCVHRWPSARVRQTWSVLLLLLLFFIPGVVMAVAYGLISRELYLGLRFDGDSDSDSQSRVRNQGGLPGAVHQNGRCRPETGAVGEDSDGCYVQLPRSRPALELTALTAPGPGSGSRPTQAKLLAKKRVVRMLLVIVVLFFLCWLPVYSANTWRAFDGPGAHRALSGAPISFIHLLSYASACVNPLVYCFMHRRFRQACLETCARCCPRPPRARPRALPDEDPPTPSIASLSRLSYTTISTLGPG
The experiment is described as follows: competitive receptor binding assay against CCK-8 on CCK-B receptor, synthetic peptide at 10 µM.

From patent publication US20070286935A1, “Bioactive Compositions, Natural Methods of Producing Them and Computational Methods for Designing Natural Production Processes” (NESTEC S.A., priority 2004, published 2007) come the findings set out here.

Consider “YSCRYFGYLVSKKKY (listed as Arabidopsis thaliana) [AtRGP1, peptide derived from Arabidopsis thaliana amylogenin protein RGP]”, for which, in experiment [1] (10 μM concentration of both PYY22-36 and test peptide, Y2-GPCR), the “percentage of inhibition of binding of the endogenous ligand PYY22-36” value was 20-40%.
With FDGVDFSEPLTRARF [OsBIP], in experiment [1] (same technique, result in words), the “binding to the Y2 receptor” value was “shown to bind the Y2 receptor”.
In experiment [2], YSCRYFGYLVSKKKY [AtRGP2 peptide fragment (peptide derived from Arabidopsis thaliana amylogenin protein RGP)] gave a percent inhibition of binding of PYY22-36 of 20 to 40%.
On to PWMDFKELQEFK [Oryza sativa oryzacystatin hydrolyzed with trypsin - synthetic peptide 3 (…)], for which, in experiment [3], the percent inhibition of binding of CCK-8 stood at 5%.
